# According to patent US20240294983A1 (CALIFORNIA INSTITUTE OF TECHNOLOGY, published 2024):
# B1: SC35 (protein, human, UniProt Q01130 2-221, looked up)
# chain: SYGRPPPDVEGMTSLKVDNLTYRTSPDTLRRVFEKYGRVGDVYIPRDRYTKESRGFAFVRFHDKRDAEDAMDAMDGAVLDGRELRVQMARYGRPPDSHHSRRGPPPRRYGGGGYGRRSRSPRRRRRSRSRSRSRSRSRSRSRYSRSKSRSRTRSRSRSTSKSRSARRSKSKSSSVSRSRSRSRSRSRSRSPPPVSKRESKSRSRSKSPPKSPEEEGAVSS
# B2: E-cadherin (receptor, human, UniProt P12830 155-882, looked up)
# chain: DWVIPPISCPENEKGPFPKNLVQIKSNKDKEGKVFYSITGQGADTPPVGVFIIERETGWLKVTEPLDRERIATYTLFSHAVSSNGNAVEDPMEILITVTDQNDNKPEFTQEVFKGSVMEGALPGTSVMEVTATDADDDVNTYNAAIAYTILSQDPELPDKNMFTINRNTGVISVVTTGLDRESFPTYTLVVQAADLQGEGLSTTATAVITVTDTNDNPPIFNPTTYKGQVPENEANVVITTLKVTDADAPNTPAWEAVYTILNDDGGQFVVTTNPVNNDGILKTAKGLDFEAKQQYILHVAVTNVVPFEVSLTTSTATVTVDVLDVNEAPIFVPPEKRVEVSEDFGVGQEITSYTAQEPDTFMEQKITYRIWRDTANWLEINPDTGAISTRAELDREDFEHVKNSTYTALIIATDNGSPVATGTGTLLLILSDVNDNAPIPEPRTIFFCERNPKPQVINIIDADLPPNTSPFTAELTHGASANWTIQYNDPTQESIILKPKMALEVGDYKINLKLMDNQNKDQVTTLEVSVCDCEGAAGVCRKAQPVEAGLQIPAILGILGGILALLILILLLLLFLRRRAVVKEPLLPPEDDTRDNVYYYDEEGGGEEDQDFDLSQLHRGLDARPEVTRNDVAPTLMSVPRYLPRPANPDEIGNFIDENLKAADTDPTAPPYDSLLVFDYEGSGSEAASLSSLNSSESDKDQDYDYLNEWGNRFKKLADMYGGGEDD
# notes: Endogenous membrane protein in fixed human cells or tissue, detected through an unnamed primary antibody and a fractional-initiator secondary antibody probe
# B3: β-catenin (other, human, UniProt P35222 2-781, looked up)
# chain: ATQADLMELDMAMEPDRKAAVSHWQQQSYLDSGIHSGATTTAPSLSGKGNPEEEDVDTSQVLYEWEQGFSQSFTQEQVADIDGQYAMTRAQRVRAAMFPETLDEGMQIPSTQFDAAHPTNVQRLAEPSQMLKHAVVNLINYQDDAELATRAIPELTKLLNDEDQVVVNKAAVMVHQLSKKEASRHAIMRSPQMVSAIVRTMQNTNDVETARCTAGTLHNLSHHREGLLAIFKSGGIPALVKMLGSPVDSVLFYAITTLHNLLLHQEGAKMAVRLAGGLQKMVALLNKTNVKFLAITTDCLQILAYGNQESKLIILASGGPQALVNIMRTYTYEKLLWTTSRVLKVLSVCSSNKPAIVEAGGMQALGLHLTDPSQRLVQNCLWTLRNLSDAATKQEGMEGLLGTLVQLLGSDDINVVTCAAGILSNLTCNNYKNKMMVCQVGGIEALVRTVLRAGDREDITEPAICALRHLTSRHQEAEMAQNAVRLHYGLPVVVKLLHPPSHWPLIKATVGLIRNLALCPANHAPLREQGAIPRLVQLLVRAHQDTQRRTSMGGTQQQFVEGVRMEEIVEGCTGALHILARDVHNRIVIRGLNTIPLFVQLLYSPIENIQRVAAGVLCELAQDKEAAEAIEAEGATAPLTELLHSRNEGVATYAAAVLFRMSEDKPQDYKKRLSVELTSSLFRTEPMAWNETADLGLDIGAQGEPLGYRQDDPSYRSFHSGGYGQDALGMDPMMEHEMGGHHPGADYPVDGLPDLGHAQDLMDGLPPGDSNQLAWFDTDL
# notes: Endogenous protein in fixed human cells or tissue, detected through an unnamed primary antibody and a fractional-initiator secondary antibody probe
# Experiments:
# [1] = substrate: SON (human) (UniProt P18583); assay: HCR proximity imaging of the endogenous complex in fixed A-431 human cells; background from controls omitting the antibodies to one protein; SEM, N=3 cells
# Sequence of SON (human) (P18583 2-2426 limits assumed): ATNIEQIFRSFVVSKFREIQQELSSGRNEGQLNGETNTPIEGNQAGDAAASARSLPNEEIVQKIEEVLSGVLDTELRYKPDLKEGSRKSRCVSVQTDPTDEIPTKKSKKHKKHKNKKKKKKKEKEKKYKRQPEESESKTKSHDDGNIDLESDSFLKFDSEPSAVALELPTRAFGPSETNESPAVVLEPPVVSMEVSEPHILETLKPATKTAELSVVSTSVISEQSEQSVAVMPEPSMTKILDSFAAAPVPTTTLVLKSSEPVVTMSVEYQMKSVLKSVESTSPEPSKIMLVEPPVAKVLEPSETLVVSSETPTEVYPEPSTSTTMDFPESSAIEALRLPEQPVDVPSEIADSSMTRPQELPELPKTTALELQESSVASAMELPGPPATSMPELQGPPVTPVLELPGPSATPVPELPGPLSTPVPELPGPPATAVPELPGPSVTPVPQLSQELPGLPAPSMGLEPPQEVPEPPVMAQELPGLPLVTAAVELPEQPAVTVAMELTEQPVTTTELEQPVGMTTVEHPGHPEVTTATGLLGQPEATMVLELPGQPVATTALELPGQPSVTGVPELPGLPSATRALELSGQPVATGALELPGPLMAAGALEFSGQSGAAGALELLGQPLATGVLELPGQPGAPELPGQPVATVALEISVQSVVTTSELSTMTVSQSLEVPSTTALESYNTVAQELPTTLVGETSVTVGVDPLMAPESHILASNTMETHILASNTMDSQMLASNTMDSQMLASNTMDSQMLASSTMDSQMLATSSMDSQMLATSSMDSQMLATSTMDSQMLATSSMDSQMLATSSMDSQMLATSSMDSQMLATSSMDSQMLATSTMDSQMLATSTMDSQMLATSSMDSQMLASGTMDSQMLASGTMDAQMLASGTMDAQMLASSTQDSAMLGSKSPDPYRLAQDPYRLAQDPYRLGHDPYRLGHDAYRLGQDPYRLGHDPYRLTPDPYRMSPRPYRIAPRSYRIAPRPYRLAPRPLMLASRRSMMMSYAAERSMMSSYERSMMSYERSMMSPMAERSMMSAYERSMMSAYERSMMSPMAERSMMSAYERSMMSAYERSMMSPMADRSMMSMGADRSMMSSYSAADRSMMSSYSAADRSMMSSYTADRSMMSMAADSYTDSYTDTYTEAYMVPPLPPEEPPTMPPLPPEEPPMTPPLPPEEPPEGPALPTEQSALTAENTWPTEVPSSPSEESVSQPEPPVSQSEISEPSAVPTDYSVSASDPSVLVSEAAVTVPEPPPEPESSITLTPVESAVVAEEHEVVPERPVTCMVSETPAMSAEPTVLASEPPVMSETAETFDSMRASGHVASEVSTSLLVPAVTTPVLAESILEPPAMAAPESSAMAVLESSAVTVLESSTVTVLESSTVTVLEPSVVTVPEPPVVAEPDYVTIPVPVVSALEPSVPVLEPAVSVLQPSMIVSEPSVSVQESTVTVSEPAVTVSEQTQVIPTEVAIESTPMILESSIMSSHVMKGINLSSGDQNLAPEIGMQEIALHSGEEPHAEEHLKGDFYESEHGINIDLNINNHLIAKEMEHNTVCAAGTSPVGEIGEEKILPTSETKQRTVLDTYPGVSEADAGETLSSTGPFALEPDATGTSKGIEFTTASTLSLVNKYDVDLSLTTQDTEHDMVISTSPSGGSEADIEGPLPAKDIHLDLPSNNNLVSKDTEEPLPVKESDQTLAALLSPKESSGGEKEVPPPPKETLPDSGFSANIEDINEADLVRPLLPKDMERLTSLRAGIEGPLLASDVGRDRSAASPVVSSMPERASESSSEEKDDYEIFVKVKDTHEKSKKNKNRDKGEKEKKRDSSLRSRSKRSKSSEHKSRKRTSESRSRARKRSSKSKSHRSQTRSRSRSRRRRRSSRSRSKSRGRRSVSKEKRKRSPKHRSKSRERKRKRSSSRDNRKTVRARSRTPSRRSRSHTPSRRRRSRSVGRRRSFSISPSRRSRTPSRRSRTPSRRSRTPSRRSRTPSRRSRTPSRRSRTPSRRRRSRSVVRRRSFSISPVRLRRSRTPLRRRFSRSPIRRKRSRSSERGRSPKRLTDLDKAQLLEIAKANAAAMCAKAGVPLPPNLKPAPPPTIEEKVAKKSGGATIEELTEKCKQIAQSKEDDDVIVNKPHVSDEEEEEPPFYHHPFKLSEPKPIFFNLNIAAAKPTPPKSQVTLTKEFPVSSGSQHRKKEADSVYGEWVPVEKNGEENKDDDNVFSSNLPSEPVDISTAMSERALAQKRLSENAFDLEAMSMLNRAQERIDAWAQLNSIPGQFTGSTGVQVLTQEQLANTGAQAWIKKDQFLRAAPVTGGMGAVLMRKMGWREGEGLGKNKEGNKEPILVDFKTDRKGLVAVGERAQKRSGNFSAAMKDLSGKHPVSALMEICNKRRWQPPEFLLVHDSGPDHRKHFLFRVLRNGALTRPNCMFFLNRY
# β-catenin = target: B3; assay: HCR proximity imaging; A-431 cells positive sample, HeLa cells negative sample
# Protocol: (§1) For each pair of sample types, signal-to-background was calculated using the positive sample type to estimate signal plus background and the negative sample type to estimate background.
# (§2) While A-431 cells formed the β-catenin:E-cadherin complex at the cell membrane of intercellular junctions,⁶³ HeLa cells express N-cadherin rather than E-cadherin^{64,65} and therefore lacked the β-catenin:E-cadherin complex.
# E-cadherin [2] = target: B2; assay: HCR proximity imaging; normal against invasive lobular carcinoma FFPE human breast tissue sections; mean±SEM, N=3 sections
# Protocol: as §1
# The β-catenin:E-cadherin target complex was detected in highly autofluorescent FFPE human breast tissue sections. The β-catenin:E-cadherin complex is robustly formed in normal breast epithelial cells, but the expression of and interaction between the β-catenin and E-cadherin proteins is interrupted when breast epithelial cells become cancerous in the invasive lobular carcinoma disease process.^{66,67} Paired normal and invasive lobular carcinoma FFPE breast tissue sections from the same patient were evaluated for the β-catenin:E-cadherin target complex, yielding strong HCR signal in normal breast tissue (FIG. 45C; positive sample) and no visible staining in cancerous tissue (FIG. 45D; negative sample), with a signal-to-background ratio of 30±3 between the two tissue types (mean±SEM for representative regions of N=3 replicate sections).
# E-cadherin [3] = target: B2; assay: HCR proximity imaging; A-431 cells (positive) against HeLa cells (negative, lacking E-cadherin); mean±SEM, N=3 wells
# Protocol: as §1, §2
# E-cadherin [4] = target: B2; assay: HCR proximity imaging of the endogenous complex in fixed A-431 human cells; background from controls omitting the antibodies to one protein; SEM, N=3 cells
# Protocol: For each protein:protein complex, background was assessed by technical controls in which the antibodies corresponding to one protein of the complex were omitted, simulating a scenario in which the two proteins are not in a complex with one another. For each of three protein:protein target complexes, a high signal-to-background ratio was obtained: 170±10 (SC35:SON), 50±10 (β-catenin:E-cadherin), and 140±10 (α-tubulin:β-tubulin) (standard error of the mean, representative regions within N=3 cells).
# E-cadherin [5] = target: B2; assay: HCR proximity imaging in FFPE human breast tissue section; background from a region with low/no complex; SEM, N=3 regions
# Protocol: FIG. 16 depicts imaging the β-catenin:E-cadherin target complex in a highly autofluorescent FFPE human breast tissue section (5-μm thickness) using a pair of fractional-initiator probes, a proximity probe, and an HCR amplifier. Background was assessed by fluorescence in a region of the sample in which there is low/no abundance of the protein:protein complex. A high signal-to-background ratio was obtained (70±20) (standard error of the mean, N=3 representative regions).
binder,measurement,setting,value
B1,signal-to-background ratio,[1],170
B2,binding result,β-catenin,binds
B3,signal-to-background ratio,E-cadherin [2],30
same,signal-to-background ratio,E-cadherin [3],26
same,signal-to-background ratio,E-cadherin [4],50
same,signal-to-background ratio,E-cadherin [5],70
